T1: UEA.I, lectin from Ulex europeus (Ulex europeus, UniProt P22972 1-243)
T1 construct: Lectin coated on the plate
T1 sequence (looked up): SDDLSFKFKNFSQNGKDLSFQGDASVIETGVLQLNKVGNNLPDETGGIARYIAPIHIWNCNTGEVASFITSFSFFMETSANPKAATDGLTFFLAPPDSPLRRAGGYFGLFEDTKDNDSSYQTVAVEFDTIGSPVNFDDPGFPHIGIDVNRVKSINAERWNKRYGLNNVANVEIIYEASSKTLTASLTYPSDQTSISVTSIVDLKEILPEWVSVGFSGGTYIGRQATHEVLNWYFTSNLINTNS

T2: PHA.L, lectin from Phaseolus vulgaris (Phaseolus vulgaris, UniProt P05087 21-272)
T2 construct: Lectin coated on the plate
T2 sequence (looked up): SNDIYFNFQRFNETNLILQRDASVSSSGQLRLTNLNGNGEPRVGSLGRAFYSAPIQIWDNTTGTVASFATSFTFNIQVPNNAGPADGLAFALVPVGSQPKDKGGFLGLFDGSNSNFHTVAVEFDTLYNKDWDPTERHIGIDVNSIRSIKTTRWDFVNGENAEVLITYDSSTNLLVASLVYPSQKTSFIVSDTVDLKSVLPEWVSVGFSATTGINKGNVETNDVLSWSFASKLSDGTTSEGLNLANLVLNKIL

B1: purified CHO-derived recombinant human IL-7 (highly glycosylated / hyperglycosylated hIL-7) (ligand)
chain: DCDIEGKDGKQYESVLMVSIDQLLDSMKEIGSNCLNNEFNFFKRHICDANKEGMFLFRAARKLRQFLKMNSTGDFDLHLLKVSEGTTILLNCTGQVKGRKPAALGEAQPTKSLEENKSLKEQKKLNDLCFLKRLLQEIKTCWNKILMGTKEH
modifications: complex N-linked oligosaccharides at Asn 70, 91 and 116; O-glycan at Thr 110; batch is a mixture of fully and partially glycosylated proteins
notes: also called CHO-derived hIL-7; purified IL-7 protein

Key:
Experiment in all cases: lectin-coated plate ELISA; bound IL-7 shown by biotinylated anti-hIL-7 antibody and streptavidin-peroxidase
[1] = molecular target: B1
Description: (§1) An array of lectins having affinity for N- and O-glycan structures was selected and used to coat 96 well microplates. Identical amounts of recombinant purified IL-7 preparations were incubated into lectin coated microplate wells. During this step, according to the affinity of a given lectin to the glycan decoration of IL-7, different amount of IL-7 were kept bound to the lectin. Revelation was conducted by incubating an IL-7 specific antibody coupled to Biotin.
(§2) Eight different lectins were used to characterize the IL-7 purified samples. Each lectin specifically recognizes sugar moieties.

[2] = molecular target: T1, UEA.I, lectin from Ulex europeus
Description: as §1, §2

[3] = molecular target: T2, PHA.L, lectin from Phaseolus vulgaris
Description: as §1, §2

Binder | binding result [1] | binding result [2] | binding result [3]
ABA, lectin from Agaricus bisporus (other, UniProt Q00022 2-143, looked up, Lectin coated on the plate) TYTISIRVYQTTPKGFFRPVERTNWKYANGGTWDEVRGEYVLTMGGSGTSGSLRFVSSDTDESFVATFGVHNYKRWCDIVTNLTNEQTALVINQEYYGVPIRDQARENQLTSYNVANAKGRRFAIEYTVTEGDNLKANLIIG | binds | – | –
B1 | – | binds | binds

Source: US20080206190A1 (CYTHERIS, published 2008)
